Data published in PMC11266705, “Elf1 promotes transcription-coupled repair in yeast by using its C-terminal domain to bind TFIIH” (Nature Communications, 2024).
Numbering of substitutions follows the chain as printed. Numbers in names are those of the source. Read-outs that look alike come from different tables or passages of the source. Each block holds one molecule with its values, some of them ahead of it.

Legend:
[1] = target: p62 PH domain (Homo sapiens) (UniProt P32780); settings: cited from earlier work
Chain of p62 PH domain (Homo sapiens) (P32780 1-108): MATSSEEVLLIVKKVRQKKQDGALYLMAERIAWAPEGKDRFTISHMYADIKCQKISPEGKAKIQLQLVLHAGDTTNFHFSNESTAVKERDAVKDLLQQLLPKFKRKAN

[2] = target: p62 PH domain (Homo sapiens) (UniProt P32780); settings: cited from earlier work; remark: listed apart in the source
[3] = target: p62 (Tfb1) PH domain (Saccharomyces cerevisiae) (UniProt P32776); settings: cited from earlier work
[4] = target: p62 PH domain (Homo sapiens) (UniProt P32780); settings: cited from earlier work; remark: listed apart in the source
[5] = target: T1, PH domain (1–115) of TFIIH p62 subunit (S. cerevisiae, UniProt P32776 1-115); experiment: BLI; Octet K2; GST-Elf1-CTD immobilised on GST-specific biosensors; PH domain of p62 at 30, 15, 7.5, 3.75 and 0 µM; 20 mM Tris-HCl pH 7.5, 5% glycerol, 1 mM DTT; association 2 min, dissociation 3 min; settings: both partners purified
T1 construct: also called PH domain of p62; p62 PH domain; source: E. coli Rosetta 2(DE3), purified (Glutathione Sepharose, released by PreScission protease cleavage)
T1 sequence (looked up): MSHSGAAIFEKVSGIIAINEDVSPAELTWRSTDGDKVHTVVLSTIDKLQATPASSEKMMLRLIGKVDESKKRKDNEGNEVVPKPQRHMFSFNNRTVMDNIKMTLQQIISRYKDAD

[6] = target: T1, PH domain (1–115) of TFIIH p62 subunit; experiment: pull-down; GST beads with GST-tagged Elf1 proteins mixed with purified PH domain of p62; 23 °C, 1 h; washed twice in 20 mM HEPES pH 7.4, 5% glycerol; SDS-PAGE; settings: both partners purified

Molecule: DP1 TIR (from UniProt Q14186)
Kd [1]: 35.3 µM

Molecule: UVSSA TIR (from UniProt Q2YD98)
Kd [2]: 71 nM

Molecule: Rad4 TIR (from UniProt P14736)
Kd [3]: 50 nM

Molecule: TFIIEα TIR (from UniProt P29083)
Kd [4]: 45 nM

Kd [5]: 3.82 µM
B1: GST-Elf1-CTD (residues 85–145) (domain or fragment, S. cerevisiae, UniProt P36053 85-145, looked up)
chain: GSDTDDGDEGSDSDYESDSEQDAKTQNDGEIDSDEEEVDSDEERIGQVKRGRGALVDSDDE
notes: also called WT CTD; Elf1 C-terminal domain; source: E. coli Rosetta 2(DE3), purified (Glutathione Sepharose, Superdex 200)

Kd [5]: 7.32 µM
B2: GST-Elf1-CTD Y99A mutant (residues 85–145) (domain or fragment, S. cerevisiae, UniProt P36053 85-145, looked up)
chain: B1 chain with Y15A
notes: also called Y99A GST-Elf1-CTD; Y99A mutant CTD; source: E. coli Rosetta 2(DE3), purified (Glutathione Sepharose, Superdex 200)

binding result [6]: binds
B3: GST-Elf1-CTD I115A (residues 85–145) (domain or fragment, S. cerevisiae, UniProt P36053 85-145, looked up)
chain: B1 chain with I31A
notes: also called I115A control; source: E. coli Rosetta 2(DE3), purified (Glutathione Sepharose, Superdex 200)

binding result [6]: binds
B4: GST-Elf1 residues 85–122 (domain or fragment, S. cerevisiae, UniProt P36053 85-122, looked up)
chain: GSDTDDGDEGSDSDYESDSEQDAKTQNDGEIDSDEEEV
notes: source: E. coli Rosetta 2(DE3), purified (Glutathione Sepharose, Superdex 200)

binding result [6]: binds
B5: GST-Elf1 residues 85–113 (domain or fragment, S. cerevisiae, UniProt P36053 85-113, looked up)
chain: GSDTDDGDEGSDSDYESDSEQDAKTQNDG
notes: elongation factor-1 (Elf1), S. cerevisiae, residues 85-113 (truncated CTD); source: E. coli Rosetta 2(DE3), purified (Glutathione Sepharose, Superdex 200)
